Where a chain is given by its changes, count along the chain named.
B1: C155 (antibody, V domains shown)
VH: EVQLVESGGGLIQPGGSLRLSCAASGFIVSSNYMSWVRQAPGKGLEWVSVIYSGGSTFYADSVKGRFTISRDNSKNTLYLQMNSLRAEDTAVYYCARDFGEFYFDYWGQGTLVTVSS
VL: EIVMTQSPATLSVSPGERATLSCRASQSVSSNLAWYQQKPGQAPRLLIYGASTRATAIPARFSGSGSGTEFTLTISSLQSEDFAVYYCQQYNNWPRTFGQGTKVEIK
B2: C138 (antibody, V domains shown)
VH: EVQLVESGGGLVQPGGSLRLSCAASGFTFSTYWMSWVRQPPGKGLEWVANIKQDGSEKYYVDSVKGRFTISRDNAKNSLYLQMNSLRADDTAVYYCAGGTWLRSSFDYWGQGTLVTVSS
VL: NFMLTQPHSVSESPGKTVTISCTGSSGSIASNYVQWYQQRPGSAPTTVIYEDNQRPSGVPDRFSGSIDSSSNSASLTISGLKTEDEADYYCQSYDSSNWVFGGGTKLTVL
B3: C141 (antibody, V domains shown)
VH: not shown
VL: B2 VL
B4: C132 (antibody, V domains shown)
VH: QVQLQESGPGLVKPSGTLSLTCAVSGGSISSNNWWSCVRQPPGKGLEWIGEIYHSGSTNYNPSLKSRVTISVDKSKNQFSLKLSSVTAADTAVYYCARGGDTAMGPEYFDYWGQGTLVTVSS
VL: QSALTQPASVSGSPGQSITISCTGTSSDVGGYNYVSWYQQHPGKAPKLMIYDVSNRPSGVSNRFSGSKSGNTASLTISGLQAEDEADYYCSSYTSSSTLLFGGGTKLTVL
B5: C153 (antibody, V domains shown)
VH: EVQLVESGGGLIQPGGSLRLSCAASGFTVSSNYMSWVRQAPGKGLEWVSVIYSGYSTYYVDSVKGRFTISRDNSKNTLYLQMNSLRAEDTAVYYCARVGGAHSGYDGSFDYWGQGTLVTVSS
VL: B4 VL with G31S, Y34L, D52E, V53G, N55K, S91C, T94A, S95G, L99W, L100V
B6: C145 (antibody, V domains shown)
VH: EVQLVESGGGLIQPGGSLRLSCAASGFSVSSNYMSWVRQAPGKGLEWVSVIYSGGSTYYADSVKGRFTISRDNSKNTLYLQMNSLRAEDTAVYYCAREGEVEGYYDFWSGYSRDRYYFDYWGQGTLVTVSS
VL: B4 VL with S97T, L99R, L100V, G103T, K106R, L107V
B7: C150 (antibody, V domains shown)
VH: EVQLVESGGGLVQPGGSLRLSCVASGFTFSSYWMHWVRQVPGKGPVWVSHINSEGSSTNYADSVRGRFTISRDNAKDTLYLQMNNLRAEDTAVYYCARPTAVAAAGNYFYYYGMDVWGQGTTVTVSS
VL: B4 VL with G31Y, Y34F, D52E, T76I, T94R, L100V
B8: C151 (antibody, V domains shown)
VH: EVQLVESGGGLVKPGGSLRLSCAASGFTFSSYNMNWVRQAPGKGLEWVSCISSSSSYIYYADSVKGRFTISRDNAKNSLYLQMNSLRAEDTAVYYCARERGYDGGKTPPFLGGQGTLVTVSS
VL: NFMLTQPHSVSESPGKTVTISCTGSSGSIASNYVQWYQQRPGSAPTTVIYEDNQRPSGVPDRFSGSIDSSSNSASLTISGLKTEDEADYYCQSYDSSNYWVFGGGTKLTVL
B9: C134 (antibody, V domains shown)
VH: EVQLLESGGGLVQPGGSLRLSCAASGFTFSNYAMSWVRQAPGKGLEWVSAISGSDGSTYYAGSVKGRFTISRDNSKNTLYLQMNSLRAEDTAVYYCAKDPLITGPTYQYFHYWGQGTLVTVSS
VL: SYELTQPPSVSVAPGKTARITCGGNNIGSKSVHWYQQKPGQAPVLVIYYDSDRPSGIPERFSGSNSGNTATLTISRVEAGDEAEYHCQVWDSSSDRPGVVFGGGTKLTVL
B10: C140 (antibody, V domains shown)
VH: EVQLVESGGGLVQPGGSLRLSCAASGVTVSSNYMSWVRQAPGKGLEWVSLIYSGGSTFYADSVKGRFTISRDNSENTLYLQMNTLRAEDTAVYYCARDLYYYGMDVWGQGTTVTVSS
VL: DIQLTQSPSFLSASVGDRVTITCRASQGISSYLAWYQQKPGKAPKLLIYAASTLQSGVPSRFSGSGSGTEFTLTISSLQPEDFATYYCQQLNSYSYTFGQGTKLEIK
B11: C133 (antibody, V domains shown)
VH: QVQLVESGGGVVQPGRSLRLSCAASGFTFSSYAMHWVRQAPGKGLEWVAVILYDGSNKYYADSVKGRFTISRDNSKNTLYLQMNSLRAEDTAVYYCARDSDVDTSMVTWFDYWGQGTLVTVSS
VL: not shown
B12: C154 (antibody, V domains shown)
VH: QVQLVESGGGVVQPGRSLRLSCAASGFTFSRYGMHWVRQAPGKGLEWVAVMSYDGSSKYYADSVKGRFTISRDNSKNTLCLQMNSLRAEDTAVYYCAKQAGPYCSGGSCYSAPFDYWGQGTLVTVSS
VL: DIQMTQSPSSLSASVGDRVTITCQASQGISNYLNWYQQKPGKAPKLLIYDASNLETGVPSRFSGSGSGTDFTFTISSLQPEDIATYYCQQYDNLPITFGQGTRLEIK
B13: C139 (antibody, V domains shown)
VH: EVQLVESGGGVVQPGRSLRLSCAASGFTFSSYAMHWVRQAPGKGLEWVAVISYDGSNKYSADSVKGRFTISRDNSKNTLYLQMNSLRAEDTAVYYCAKGGAYSYYYYMDVWGKGTTVTVSS
VL: not shown
B14: C143 (antibody, V domains shown)
VH: EVQLVESGGGLVQPGGSLRLSCAASGFSVSTKYMTWVRQAPGKGLEWVSVLYSGGSDYYADSVKGRFTISRDNSKNALYLQMNSLRVEDTGVYYCARDSSEVRDHPGHPGRSVGAFDIWGQGTMVTVSS
VL: QSALTQPASVSGSPGQSITISCTGTSNDVGSYTLVSWYQQYPGKAPKLLIFEGTKRSSGISNRFSGSKSGNTASLTISGLQGEDEADYYCCSYAGASTFVFGGGTKLTVL
B15: C148 (antibody, V domains shown)
VH: EVQLVESGGGLVQPGGSQRLSCAASGFTVSSNYMSWIRQAPGKGLEWVSVIYSGGSAYYVDSVKGRFTISRDNSKNTLYLQMNSLRPEDTAVYYCARIANYMDVWGKGTTVTVSS
VL: EIVMTQSPATLSVSPGERATLSCRASQSVSSHLAWYQQKPGQAPRLLIYGASTRATGIPTRFSGSGSGTEFTLTISSLQSEDFAVYYCQQYNNWPPLTFGGGTKVEIK

Target: SARS-CoV-2 receptor binding domain (RBD) (Severe acute respiratory syndrome …, UniProt P0DTC2)
Test: cell-based or functional assay

Row | Binder | IC50 of neutralisation of SARS-CoV-2 pseudovirus (293T_(ACE2) cells)
1 | B1 | 0.011 µg/mL
2 | B2 | > 1 µg/mL
3 | B3 | > 1 µg/mL
4 | B4 | 0.709 µg/mL
5 | B5 | 0.0707 µg/mL
6 | B6 | 0.00304 µg/mL
7 | B7 | > 1 µg/mL
8 | B8 | 0.0318 µg/mL
9 | B9 | > 1 µg/mL
10 | B10 | 0.0239 µg/mL
11 | B11 | > 1 µg/mL
12 | B12 | 0.435 µg/mL
13 | B13 | > 1 µg/mL
14 | B14 | > 1 µg/mL
15 | B15 | > 1 µg/mL

Source: paper PMC7263513 (bioRxiv, 2020)
